Each block holds one molecule with its values, some of them ahead of it.
Tests used:
[1] = target: IGF-1R on cells (human) (UniProt P08069); assay: 125I-IGF-1 binding to MCF-7L cells with antibody at 100 ng/mL
[2] = target: IGF-1R on cells (human) (UniProt P08069); assay: 125I-IGF-1 binding to MCF-7L cells with antibody at 1000 ng/mL
[3] = target: IGF-1R on cells (human) (UniProt P08069); assay: cell-based or functional assay
[4] = target: IGF-1R on cells (human) (UniProt P08069); assay: flow cytometry (FACScan), DU 145 cells
[5] = target: T1, recombinant human IGF-1R (R&D Systems, Catalog # 391-GR) (human, UniProt P08069 31-935); assay: rhIGF-1R on polystyrene beads (not shown)
T1 construct: extracellular domain; immobilized on ELISA plates or polystyrene beads; also called rhIGF-1R; IGF-1R-coated beads
T1 sequence (P08069 31-935): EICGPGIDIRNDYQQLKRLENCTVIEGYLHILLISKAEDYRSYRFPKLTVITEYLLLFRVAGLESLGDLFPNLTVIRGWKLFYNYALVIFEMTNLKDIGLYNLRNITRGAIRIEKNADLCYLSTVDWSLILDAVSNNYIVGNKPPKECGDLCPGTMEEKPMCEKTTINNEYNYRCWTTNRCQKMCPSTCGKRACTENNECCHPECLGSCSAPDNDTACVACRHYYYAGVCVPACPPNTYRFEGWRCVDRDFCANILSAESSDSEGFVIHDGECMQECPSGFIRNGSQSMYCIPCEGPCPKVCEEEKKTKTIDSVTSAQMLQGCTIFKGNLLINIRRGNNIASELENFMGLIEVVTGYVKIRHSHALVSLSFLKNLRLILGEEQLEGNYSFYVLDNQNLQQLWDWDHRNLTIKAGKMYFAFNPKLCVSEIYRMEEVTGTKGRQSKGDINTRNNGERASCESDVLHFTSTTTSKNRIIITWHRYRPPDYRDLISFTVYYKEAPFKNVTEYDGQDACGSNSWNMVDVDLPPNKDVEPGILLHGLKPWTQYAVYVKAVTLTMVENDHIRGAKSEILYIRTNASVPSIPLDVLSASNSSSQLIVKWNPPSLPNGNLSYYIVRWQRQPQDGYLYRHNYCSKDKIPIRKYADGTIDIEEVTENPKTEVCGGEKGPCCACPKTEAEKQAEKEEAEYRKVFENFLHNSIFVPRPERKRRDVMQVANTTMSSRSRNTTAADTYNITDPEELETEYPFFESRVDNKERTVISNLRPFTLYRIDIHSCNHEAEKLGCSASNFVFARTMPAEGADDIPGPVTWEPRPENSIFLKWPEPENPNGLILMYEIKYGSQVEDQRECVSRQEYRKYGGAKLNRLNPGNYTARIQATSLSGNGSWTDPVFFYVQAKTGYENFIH

[6] = target: IGF-1R on cells (human) (UniProt P08069); assay: flow cytometry (FACScan), ME-180 cells
[7] = target: IGF-1R on cells (human) (UniProt P08069); assay: flow cytometry (FACScan), MCF-7 cells
[8] = target: recombinant human IGF-1R (R&D Systems, Catalog # 391-GR) (human) (UniProt P08069); assay: ELISA on immobilized rhIGF-1R (not shown); cR1 from clones 709.2D2 and 710.2G2, same affinity
Sequence of recombinant human IGF-1R (R&D Systems, Catalog # 391-GR) (human) (P08069 31-935): as above

Sequence of IGF-1R on cells (human) (P08069 31-1367): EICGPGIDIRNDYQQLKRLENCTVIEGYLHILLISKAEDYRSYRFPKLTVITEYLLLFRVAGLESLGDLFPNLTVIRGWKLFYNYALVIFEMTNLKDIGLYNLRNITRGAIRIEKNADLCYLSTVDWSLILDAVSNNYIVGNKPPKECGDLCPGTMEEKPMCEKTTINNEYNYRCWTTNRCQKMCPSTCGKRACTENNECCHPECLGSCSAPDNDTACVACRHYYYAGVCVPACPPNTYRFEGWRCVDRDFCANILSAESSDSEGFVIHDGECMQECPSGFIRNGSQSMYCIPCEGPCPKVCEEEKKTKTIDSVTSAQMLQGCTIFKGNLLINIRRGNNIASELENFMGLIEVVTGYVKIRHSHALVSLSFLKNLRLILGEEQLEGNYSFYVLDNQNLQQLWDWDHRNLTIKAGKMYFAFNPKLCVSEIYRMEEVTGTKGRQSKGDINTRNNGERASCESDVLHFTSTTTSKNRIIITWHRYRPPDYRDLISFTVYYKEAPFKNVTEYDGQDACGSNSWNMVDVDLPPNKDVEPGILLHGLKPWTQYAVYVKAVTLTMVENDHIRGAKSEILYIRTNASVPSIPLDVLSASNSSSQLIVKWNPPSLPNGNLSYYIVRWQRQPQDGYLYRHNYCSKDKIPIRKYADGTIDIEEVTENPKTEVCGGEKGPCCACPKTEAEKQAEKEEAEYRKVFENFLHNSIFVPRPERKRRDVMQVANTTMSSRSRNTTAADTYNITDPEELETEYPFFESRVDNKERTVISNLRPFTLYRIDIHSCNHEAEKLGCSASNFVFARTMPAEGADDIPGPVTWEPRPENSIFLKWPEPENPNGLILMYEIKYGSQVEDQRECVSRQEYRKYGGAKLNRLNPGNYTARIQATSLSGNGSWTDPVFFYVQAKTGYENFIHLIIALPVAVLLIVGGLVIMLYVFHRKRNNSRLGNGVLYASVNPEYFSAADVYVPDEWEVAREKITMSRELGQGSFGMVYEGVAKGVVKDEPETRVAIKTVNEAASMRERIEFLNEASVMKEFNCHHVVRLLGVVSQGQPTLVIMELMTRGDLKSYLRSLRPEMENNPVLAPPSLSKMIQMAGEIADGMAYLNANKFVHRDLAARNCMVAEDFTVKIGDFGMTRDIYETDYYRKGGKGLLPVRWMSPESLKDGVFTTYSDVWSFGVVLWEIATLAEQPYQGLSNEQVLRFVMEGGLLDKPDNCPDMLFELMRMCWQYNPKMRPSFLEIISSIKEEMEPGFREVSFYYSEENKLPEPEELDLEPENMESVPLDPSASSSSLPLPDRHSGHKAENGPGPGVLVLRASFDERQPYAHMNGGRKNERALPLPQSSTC

B2: 1R-E1 (bispecific antibody, part only; not given: hRS7 Fab-DDD2 module, not shown: a dimerising Fc or GST)
heavy (part 1 of 2): QVQLQESGGGVVQPGRSLRLSCSASGFTFSDYYMYWVRQAPGKGLEWVAYITNYGGSTYYPDTVKGRFTISRDNAKNTLFLQMDSLRPEDTGVYFCARQSNYDYDGWFAYWGQGTPVTVSS
heavy (part 2 of 2): GSGGGGSGGCGQIEYLAKQIVDNAIQQAGC
light: DIQLTQSPSSLSASVGDRVTITCKASQEVGTAVAWYQQKPGKAPKLLIYWASTRHTGVPSRFSGSGSGTDFTFTISSLQPEDIATYFCQQYSNYPLTFGQGTKVEIKR
- concentration substantially reducing the level of IGF-1R in MCF-7, DU-145 and LnCap [3]: 0.1 nM

B3: Hex-hR1 (antibody, V domains shown, not shown: a dimerising Fc or GST; small tags and cut ends)
VH: QVQLQESGGGVVQPGRSLRLSCSASGFTFSDYYMYWVRQAPGKGLEWVAYITNYGGSTYYPDTVKGRFTISRDNAKNTLFLQMDSLRPEDTGVYFCARQSNYDYDGWFAYWGQGTPVTVSS
VL: DIQLTQSPSSLSASVGDRVTITCKASQEVGTAVAWYQQKPGKAPKLLIYWASTRHTGVPSRFSGSGSGTDFTFTISSLQPEDIATYFCQQYSNYPLTFGQGTKVEIK
modifications: DNL complex: one IgG-AD2 and four Fab-DDD2, disulfide-locked through AD2 and DDD2. All six Fabs carry the same hR1 VH/VK [CUT]
- maximum growth inhibition, 786-O cells (8 nM), serum-free, IGF-1 100 ng/mL, MTS [3]: 35%
- maximum growth inhibition, ACHN cells (200 nM), serum-free, IGF-1 100 ng/mL, MTS [3]: 48%
- maximum growth inhibition, Caki-2 cells (8 nM), serum-free, IGF-1 100 ng/mL, MTS [3]: 43%

Further lines, results first:

- % binding of 125I-IGF-1 to MCF-7L [1]: 54%
- % binding of 125I-IGF-1 to MCF-7L [2]: 38%
- maximum growth inhibition, 786-O cells (8 nM), serum-free, IGF-1 100 ng/mL, MTS [3]: 34%
- maximum growth inhibition, ACHN cells (200 nM), serum-free, IGF-1 100 ng/mL, MTS [3]: 48%
- maximum growth inhibition, Caki-2 cells (8 nM), serum-free, IGF-1 100 ng/mL, MTS [3]: 50%
Molecule: MAB391 (antibody)

- % Positive [4]: 30.4%
- MFI [4]: 5.33
- binding result [5]: binds
- % Positive [6]: 10.7%
- MFI [6]: 3.65
- % Positive [7]: 89.2%
- MFI [7]: 9.93
- concentration giving complete receptor down-regulation [3]: 10 nM
- maximum growth inhibition, 786-O cells (8 nM), serum-free, IGF-1 100 ng/mL, MTS [3]: 26%
- maximum growth inhibition, ACHN cells (200 nM), serum-free, IGF-1 100 ng/mL, MTS [3]: 3%
- maximum growth inhibition, Caki-2 cells (8 nM), serum-free, IGF-1 100 ng/mL, MTS [3]: 33%
B1: hR1 (antibody, IgG1, V domains shown)
VH: QVQLQESGGGVVQPGRSLRLSCSASGFTFSDYYMYWVRQAPGKGLEWVAYITNYGGSTYYPDTVKGRFTISRDNAKNTLFLQMDSLRPEDTGVYFCARQSNYDYDGWFAYWGQGTPVTVSS
VL: DIQLTQSPSSLSASVGDRVTITCKASQEVGTAVAWYQQKPGKAPKLLIYWASTRHTGVPSRFSGSGSGTDFTFTISSLQPEDIATYFCQQYSNYPLTFGQGTKVEIKR
notes: also called humanized anti-IGF-1R; hR1 IgG

- Kd [8]: 0.1 nM
B4: cR1 (antibody, from another filing, V domains shown)
VH: EVKLVESGGGLVQPGGSLKLSCATSGFTFSDYYMYWVRQTPEKRLEWVAYITNYGGSTYYPDTVKGRFTISRDNAKNTLYLQMSRLRSEDTAMYFCARQSNYDYDGWFAYWGQGTTVTVSS
VL: DIVMTQSHKFMSTSVGDRVSITCKASQEVGTAVAWYQQKPGQSPKLLIYWASTRHTGVPDRFTGSGSGTDFTLTISNVQSEDLADYFCQQYSNYPLTFGAGAKLELKR

From patent EP2785382B1 (IBC Pharmaceuticals, Inc., dated 2019)
